In patent publication US20220175942A1 (OXFORD UNIVERSITY INNOVATION, published 2022):

B3: CCL3_HUMAN (ligand)
chain: SLAADTPTACCFSYTSRQIPQNFIADYFETSSQCSKPGVIFLTKRSRQVCADPSEEWVQKYVSDLELSA
notes: Biotinylated (detected with streptavidin-Alexa647) in yeast display; AlexaFluor 647 labelled (Almac) in thermophoresis
B8: CCL17_HUMAN (ligand)
chain: ARGTNVGRECCLEYFKGAIPLRKLKTWYQTSEDCSRDAIVFVTVQGRAICSDPNNKRVKNAVKYLQSLERS
notes: as for B3

How the values were obtained:
CCL4 = molecular target: T1, CCL4 (human, UniProt P13236 24-92); test: yeast surface display FACS re-test, >3 fold MFI over control (col D);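 note: yeast displaying putative tick Evasins stained with biotinylated human chemokine plus streptavidin-Alexa647, flow cytometry, positive when MFI exceeds 3-fold the empty-vector or no-chemokine background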
T1 construct: Biotinylated (detected with streptavidin-Alexa647) in yeast display; also called human CCL4
T1 sequence: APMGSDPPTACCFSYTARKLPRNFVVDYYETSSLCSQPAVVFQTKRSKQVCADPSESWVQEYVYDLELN

CCL11_HUMAN = molecular target: T2, CCL11_HUMAN (human, UniProt P51671 24-97); test: yeast surface display library FACS screen, labelled chemokine (col C: isolated in)
T2 construct: Biotinylated (detected with streptavidin-Alexa647) in yeast display; AlexaFluor 647 labelled (Almac) in thermophoresis
T2 sequence (P51671 24-97 limits assumed): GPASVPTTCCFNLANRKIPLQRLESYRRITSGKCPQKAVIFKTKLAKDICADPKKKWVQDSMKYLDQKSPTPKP

CCL1_HUMAN = molecular target: T3, CCL1_HUMAN (human, UniProt P22362 24-96); test: as above
T3 construct: Biotinylated (detected with streptavidin-Alexa647) in yeast display; AlexaFluor 647 labelled (Almac) in thermophoresis
T3 sequence: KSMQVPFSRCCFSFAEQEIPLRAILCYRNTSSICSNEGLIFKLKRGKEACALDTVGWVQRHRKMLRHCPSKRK

CCL25_HUMAN [1] = molecular target: T4, CCL25_HUMAN (human, UniProt O15444 24-150); test: as above
T4 construct: Biotinylated (detected with streptavidin-Alexa647) in yeast display; AlexaFluor 647 labelled (Almac) in thermophoresis
T4 sequence: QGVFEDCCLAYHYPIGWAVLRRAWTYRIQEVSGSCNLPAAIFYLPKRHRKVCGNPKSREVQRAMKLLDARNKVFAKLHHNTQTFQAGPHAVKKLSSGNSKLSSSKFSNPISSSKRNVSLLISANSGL

CCL17_HUMAN [2] = molecular target: B8; test: as above
CCL20_HUMAN [3] = molecular target: T5, CCL20_HUMAN (human, UniProt P78556 27-96); test: as above
T5 construct: Biotinylated (detected with streptavidin-Alexa647) in yeast display; AlexaFluor 647 labelled (Almac) in thermophoresis
T5 sequence (P78556 27-96 limits assumed): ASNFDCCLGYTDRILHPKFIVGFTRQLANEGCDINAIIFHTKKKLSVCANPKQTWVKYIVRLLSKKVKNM

P1243_AMBAM [4] = molecular target: T6, P1243_AMBAM (Amblyomma americanum, UniProt A0A0C9S461 26-123); test: yeast surface display FACS re-test, >3 fold MFI over control (col D);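 note: yeast displaying putative tick Evasins stained with biotinylated human chemokine plus streptavidin-Alexa647, flow cytometry, positive when MFI exceeds 3-fold the empty-vector or no-chemokine background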
T6 construct: Tick evasin; also called Evasin
T6 sequence: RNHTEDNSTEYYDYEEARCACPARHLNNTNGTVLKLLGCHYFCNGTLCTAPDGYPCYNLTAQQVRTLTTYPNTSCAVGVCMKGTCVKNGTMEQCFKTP

P546_AMBCA [5] = molecular target: T7, P546_AMBCA (Amblyomma cajennense, UniProt A0A023FBW7 22-118); test: microscale thermophoresis, AlexaFluor 647 labelled chemokine
T7 construct: Tick evasin; also called Evasin
T7 sequence: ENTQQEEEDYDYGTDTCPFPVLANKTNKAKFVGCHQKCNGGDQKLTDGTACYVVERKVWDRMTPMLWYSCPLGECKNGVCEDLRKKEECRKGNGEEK

P1182_AMBMA = molecular target: T8, P1182_AMBMA (Amblyomma maculatum, UniProt G3MJ83 27-115); test: yeast surface display library FACS screen, labelled chemokine (col C: isolated in)
T8 construct: Tick evasin; also called Evasin
T8 sequence: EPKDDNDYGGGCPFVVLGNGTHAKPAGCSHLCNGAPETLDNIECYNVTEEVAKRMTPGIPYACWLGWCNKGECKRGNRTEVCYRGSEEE

P467_RHIPU = molecular target: T9, P467_RHIPU (Rhipicephalus pulchellus, UniProt L7M8Z8 22-127); test: as above
T9 construct: Tick evasin; also called Evasin
T9 sequence: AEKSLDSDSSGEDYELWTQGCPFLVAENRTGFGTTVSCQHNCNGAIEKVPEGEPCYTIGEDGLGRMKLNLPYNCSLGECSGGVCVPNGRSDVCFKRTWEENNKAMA

P1181_AMBMA = molecular target: T10, P1181_AMBMA (Amblyomma maculatum, UniProt G3MIX6 26-115); test: as above
T10 construct: Tick evasin; also called Evasin
T10 sequence: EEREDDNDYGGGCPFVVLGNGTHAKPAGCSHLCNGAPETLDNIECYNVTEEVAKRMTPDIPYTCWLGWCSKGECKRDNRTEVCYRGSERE

CCL19_HUMAN [6] = molecular target: T11, CCL19_HUMAN (human, UniProt Q99731 22-98); test: yeast surface display FACS re-test, >3 fold MFI over control (col D);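 note: yeast displaying putative tick Evasins stained with biotinylated human chemokine plus streptavidin-Alexa647, flow cytometry, positive when MFI exceeds 3-fold the empty-vector or no-chemokine background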
T11 construct: Biotinylated (detected with streptavidin-Alexa647) in yeast display; AlexaFluor 647 labelled (Almac) in thermophoresis
T11 sequence: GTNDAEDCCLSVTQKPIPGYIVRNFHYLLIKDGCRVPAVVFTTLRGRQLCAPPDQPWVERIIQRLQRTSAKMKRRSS

CCL5_HUMAN [7] = molecular target: T12, CCL5_HUMAN (human, UniProt P13501 24-91); test: as above
T12 construct: Biotinylated (detected with streptavidin-Alexa647) in yeast display; AlexaFluor 647 labelled (Almac) in thermophoresis
T12 sequence: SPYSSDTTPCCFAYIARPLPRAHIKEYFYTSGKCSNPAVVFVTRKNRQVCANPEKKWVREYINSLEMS

CCL22_HUMAN = molecular target: T13, CCL22_HUMAN (human, UniProt O00626 25-93); test: as above
T13 construct: Biotinylated (detected with streptavidin-Alexa647) in yeast display; AlexaFluor 647 labelled (Almac) in thermophoresis
T13 sequence: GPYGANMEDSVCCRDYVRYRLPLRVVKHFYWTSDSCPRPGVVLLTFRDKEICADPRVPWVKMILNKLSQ

CXCL8_HUMAN = molecular target: T14, CXCL8_HUMAN (human, UniProt P10145 28-99); test: yeast surface display library FACS screen, labelled chemokine (col C: isolated in)
T14 construct: Biotinylated (detected with streptavidin-Alexa647) in yeast display; AlexaFluor 647 labelled (Almac) in thermophoresis
T14 sequence: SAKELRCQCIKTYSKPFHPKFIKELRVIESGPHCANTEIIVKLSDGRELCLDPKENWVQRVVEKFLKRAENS

CCL17_HUMAN [8] = molecular target: B8; test: yeast surface display FACS re-test, >3 fold MFI over control (col D);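 note: yeast displaying putative tick Evasins stained with biotinylated human chemokine plus streptavidin-Alexa647, flow cytometry, positive when MFI exceeds 3-fold the empty-vector or no-chemokine background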
CXCL10_HUMAN [9] = molecular target: T15, CXCL10_HUMAN (human, UniProt P02778 22-98); test: as above
T15 construct: Biotinylated (detected with streptavidin-Alexa647) in yeast display; AlexaFluor 647 labelled (Almac) in thermophoresis
T15 sequence: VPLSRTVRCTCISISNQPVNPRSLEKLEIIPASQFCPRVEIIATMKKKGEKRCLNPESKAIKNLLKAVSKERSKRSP

CCL18_HUMAN = molecular target: T16, CCL18_HUMAN (human, UniProt P55774 21-89); test: as above
T16 construct: Biotinylated (detected with streptavidin-Alexa647) in yeast display; AlexaFluor 647 labelled (Almac) in thermophoresis
T16 sequence: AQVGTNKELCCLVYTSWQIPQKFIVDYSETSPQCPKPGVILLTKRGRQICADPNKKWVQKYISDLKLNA

CCL20_HUMAN [10] = molecular target: T5, CCL20_HUMAN; test: as above
CCL25_HUMAN [11] = molecular target: T4, CCL25_HUMAN; test: as above
CCL8_HUMAN = molecular target: T17, CCL8_HUMAN (human, UniProt P80075 24-99); test: as above
T17 construct: Biotinylated (detected with streptavidin-Alexa647) in yeast display; AlexaFluor 647 labelled (Almac) in thermophoresis
T17 sequence: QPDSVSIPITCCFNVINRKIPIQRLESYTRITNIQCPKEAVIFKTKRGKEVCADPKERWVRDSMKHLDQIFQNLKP

CCL5_HUMAN [12] = molecular target: T12, CCL5_HUMAN; test: yeast surface display library FACS screen, labelled chemokine (col C: isolated in)
CCL3_HUMAN = molecular target: B3; test: as above
CCL19_HUMAN [13] = molecular target: T11, CCL19_HUMAN; test: as above
CXCL10_HUMAN [14] = molecular target: T15, CXCL10_HUMAN; test: as above
P546_AMBCA [15] = molecular target: T7, P546_AMBCA; test: yeast surface display FACS re-test, >3 fold MFI over control (col D)
P991_AMBCA = molecular target: T18, P991_AMBCA (Amblyomma cajennense, UniProt A0A023FFD0 29-136); test: yeast surface display library FACS screen, labelled chemokine (col C: isolated in)
T18 construct: Tick evasin; also called Evasin
T18 sequence: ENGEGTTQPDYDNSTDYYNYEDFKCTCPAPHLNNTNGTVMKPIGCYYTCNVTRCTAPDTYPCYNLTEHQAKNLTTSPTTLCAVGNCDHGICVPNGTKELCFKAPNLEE

P974_AMBCA = molecular target: T19, P974_AMBCA (Amblyomma cajennense, UniProt A0A023FDY8 22-118); test: as above
T19 construct: Tick evasin; also called Evasin
T19 sequence: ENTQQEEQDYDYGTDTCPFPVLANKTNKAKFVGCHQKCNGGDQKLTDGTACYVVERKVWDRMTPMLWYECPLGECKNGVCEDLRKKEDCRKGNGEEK

P1243_AMBAM [16] = molecular target: T6, P1243_AMBAM; test: as above

B1: P1014_AMBCA (other)
chain: DIIGGIPGCGDPTTTSAPEVPPKHFAVRTDKDGCTLMIIGTWMTTEDHNRLPPDIGEKRAPYGRVQLPASCKKNCHGKVKNLPNGTPCREVFGDPRRGRKHIKNGCTVGKCQSGLCVTDKRIISCYIPPNITDPIPTHGPWAE
notes: Tick evasin; also called Evasin
binding result (CCL4): binds
binding result (CCL11_HUMAN): binds
binding result (CCL1_HUMAN): binds
binding result (CCL25_HUMAN [1]): binds

B2: P1252_AMBAM (other)
chain: RGGAASVPANASIPGCGDAQTTPAAPEDQPKHYVVYRDGNGCEVKIIGTWMTTEDYNCLPDTFRKNRAPHGKVKLPASCKKTCGNAVQNLKDGTPCRKVFGDLGRRRNLIKNGCLVGACQSGLCVSGNRTISCYIPPNSTDTRATPGSFAE
notes: as for B1
binding result (CCL11_HUMAN): binds
binding result (CCL17_HUMAN [2]): binds
binding result (CCL20_HUMAN [3]): binds

B3
binding result (P1243_AMBAM [4]): binds
Kd (P546_AMBCA [5]): 171 nM
binding result (P1182_AMBMA): binds
binding result (P467_RHIPU): binds
binding result (P1181_AMBMA): binds

B4: P1006_AMBCA (other)
chain: DTIGGIPGCGDPATTSAPEDQPKHYAVRTDKNGCKVMVIGTWMTKEDHNLLPPYISKERAPSGKVQLPASCKKNCHGKLKNLPNGTPCREVFGDLRRRRKHIKDGCKVGKCQNGLCVSEERIISCYLPPNITDPRPTHGPLAE
notes: as for B1
binding result (CCL19_HUMAN [6]): binds
binding result (CCL5_HUMAN [7]): binds
binding result (CCL22_HUMAN): binds
binding result (CCL11_HUMAN): binds
binding result (CCL1_HUMAN): binds
binding result (CXCL8_HUMAN): binds
binding result (CCL25_HUMAN [1]): binds

B5: P1209_AMBPA (other)
chain: KTDTKNAAGELPPKVAIPGCEDPATTKAPLPDDPRYYGVTIDKDGCQRKVLGSSQRQQRQVQNGRKPGRKGRGRRPVFVDLKLTVDCKRKCNGTYSQLPDGEPCLVCDGEPYGRHRTIKGGCYQGNCSSGQCHRGERKVNCYIPKNITNNVLNSVNLAE
notes: as for B1
binding result (CCL17_HUMAN [8]): binds
binding result (CCL19_HUMAN [6]): binds
binding result (CXCL10_HUMAN [9]): binds
binding result (CCL18_HUMAN): binds
binding result (CCL20_HUMAN [10]): binds
binding result (CCL25_HUMAN [11]): binds
binding result (CCL8_HUMAN): binds
binding result (CCL11_HUMAN): binds
binding result (CCL1_HUMAN): binds
binding result (CCL5_HUMAN [12]): binds
binding result (CXCL8_HUMAN): binds

B6: P993_AMBPA (other)
chain: HRHYDPNEPCLIAGLKTPRDALPAGCRYDCMIKKNQKLRDGLLCLDVPEKVVKRMVNYLNYSCPLGTCRKGICKRKHRNVRCQKYPVFYMSPPK
notes: Tick evasin
binding result (CCL5_HUMAN [7]): binds
binding result (CCL11_HUMAN): binds
binding result (CCL17_HUMAN [2]): binds
binding result (CCL1_HUMAN): binds
binding result (CXCL8_HUMAN): binds
binding result (CCL20_HUMAN [3]): binds
binding result (CCL25_HUMAN [1]): binds

B7: P1224_IXORI (other)
chain: SDLCKMEAESSPFKLPQSSLLDAPDEEGCKYQLLFVEAEGPLVVNCTKDCPNGKIRTVVEGELCIAMVKTSSSGEATGLVGSCKRGSCVKKDDPCRTFTLSEEGDDDEEDEEEEEDEEEDEEEDEEEEEEDEEEED
notes: as for B1
binding result (CCL3_HUMAN): binds
binding result (CCL19_HUMAN [13]): binds
binding result (CXCL10_HUMAN [14]): binds

B8
binding result (P546_AMBCA [15]): binds
binding result (P991_AMBCA): binds
binding result (P974_AMBCA): binds
binding result (P1243_AMBAM [16]): binds
